Reference: US7173007B1, “Therapy for microbial infections” (The Regents of the University of California, priority 2003, dated 2007)

Columns and labels:
MRSA = test: Colony-forming assay (CFU), liquid phase; type: cell-based, Staphylococcus aureus; details: 10 mM phosphate, 1% TSB, pH 7.4
Experimental: (§1) FIGS. 3A–C show Growth inhibition of MRSA, E. coli, and P. aeruginosa by cathelin-like protein. (a) Inhibition zone ssay on tryptone/agarose plates with MRSA. Clear circles show lack of bacterial growth. Lanes 1, 3, 5, bottom row: cathelin-like protein at […], 16 μM, respectively. Lane 2, top row:[…] of His-tagged cathelin-like protein before cleavage. Lane 4, top: enterokinase enzyme alone. All assays were performed in duplicate and repeated three times. (b), (c) CFU assay: growth inhibition of (b) MRSA and (c) E. coli, cultured in 10 mM phosphate and 1% TSB (pH 7.4) and then supplemented with different concentrations of human cathelin-like protein.
(§2) The colony-forming assay (CFU) was performed. Bacterial cultures (E. coli or MRSA) were collected at the logarithmic phase of growth in TSB, washed twice with phosphate-buffered saline, pH 7.4, and diluted to 104 CFU per ml in 10 mM phosphate buffer, pH 7.4, Na2HPO4/NaH2PO4-1% TSB (g per 1). Forty-five microliters of bacterial suspension were mixed with […] of H2O (control) or with […] of different concentrations of cathelin-like proteins, and the mixture was incubated at 37° C. Every 30 min, a […] aliquot of the reaction mixture was plated directly onto a TSB agar plate and then incubated at 37° C. overnight for enumeration of CFU. Data are reported as growth index=final CFU/CFU in initial inoculum. […]

E. coli = test: Colony-forming assay (CFU), liquid phase; type: cell-based; design: unit of the concentration uncertain; details: 10 mM phosphate, 1% TSB
Experimental: as §1, §2

MRSA (ATCC 33591) = test: Radial diffusion (inhibition zone) assay; type: cell-based, Staphylococcus aureus; details: MRSA
Experimental: as §1
Antimicrobial assays. E. coli (ATCC 25922), Pseudomonas aeruginosa (ATCC 8427), Salmonella typhimurium (ATCC 13311), Proteus vulgaris (ATCC 8427), Staphylococcus epidermidis (ATCC 12228), and MRSA (ATCC 33591) isolates were maintained on trypticase soy broth (TSB) agar plates. Individual colonies were selected and cultured overnight in TSB, subcultured once at 1:50 in fresh TSB, and then grown to stationary phase for use in all experiments. The radial diffusion assay was performed in 0.5% agarose and 0.75% tryptone brought to ebullition and cooled to 43° C., and then mixed with […] of bacterial suspension and poured into a 10 cm Petri dish. […]

human liver cathepsin L = target: T1, human liver cathepsin L (Homo sapiens, UniProt P07711); test: Proteinase activity inhibition assay (hydrolysis of Z-Phe-Arg-AMC); type: biochemical
T1 construct: human liver cathepsin L (Calbiochem, Calif.); purchased Calbiochem; host or cells: human liver
Experimental: FIG. 2 show the proteinase inhibitory activity of recombinant cathelin-like protein. Hydrolysis of the fluorogenic substrate Z-Phe-Arg-AMC by cathepsin L (protease alone), and in the presence of cathelin-like protein (protease+cathelin). […] Slopes, intercepts, and correlation coefficients were calculated by linear regression. Data were recorded 10 times over 30 min and are representative of two experiments.
Proteinase activity inhibition assay. Proteinase inhibitory activity of recombinant cathelin-like protein was assayed spectrofluorometrically by measuring its inhibitory action against human liver cathepsin L (Calbiochem, Calif.). For the reaction assay, cathepsin L (0.1 mU) in the assay buffer ([…] sodium acetate, 60 mM acetic acid, 8 mM dithiothreitol, and 4 mM EDTA, pH 5.5, supplemented with 0.1% BRIJ 35) was preincubated for 2 min at 30° C. with 10^−6 M cathelin-like protein before adding […] of substrate Z-Phe-Arg-7-amido-4-methylcoumarin (Calbiochem). When hydrolyzed by cathepsin L, this substrate releases highly fluorescent 7-amido-4-methylcoumarin (AMC). AMC intensity was determined using spectrophotometer at 370 nm excitation and an emission wavelength of 460 nm. One unit was defined as the amount of enzyme that will hydrolyze 1.0 mmol of Z-Phe-Arg-AMC per min at 25° C., pH 5.5.
Proteinase inhibitory activity. To evaluate the possible protease inhibitory activity action of cathelin-like protein, the activity of human cathepsin L was measured in the presence or absence of recombinant cathelin-like protein using the fluorescent substrate Z-Phe-Arg-AMC.

S. enteritidis = test: Radial diffusion (inhibition zone) assay; type: cell-based
Experimental: (§3) Antimicrobial assays. E. coli (ATCC 25922), Pseudomonas aeruginosa (ATCC 8427), Salmonella typhimurium (ATCC 13311), Proteus vulgaris (ATCC 8427), Staphylococcus epidermidis (ATCC 12228), and MRSA (ATCC 33591) isolates were maintained on trypticase soy broth (TSB) agar plates. Individual colonies were selected and cultured overnight in TSB, subcultured once at 1:50 in fresh TSB, and then grown to stationary phase for use in all experiments. The radial diffusion assay was performed in 0.5% agarose and 0.75% tryptone brought to ebullition and cooled to 43° C., and then mixed with […] of bacterial suspension and poured into a 10 cm Petri dish. A series of small wells (diameter, 3 mm) were punched in the plate after the agarose solidified. Two microliters of test samples were applied in each well. Plates were incubated at 37° C. overnight to allow visible growth of bacteria. Antibacterial activity was indicated by the clear zone (no bacterial growth) around the well.
(§4) Antimicrobial activity of recombinant cathelin-like protein. Recombinant cathelicidins were tested for antimicrobial activity using a standard radial diffusion assay. Different concentrations of the cathelin-like protein were loaded into wells on assay plates containing Gram-positive MRSA, S. epidermidis, and strains of the Gram-negative bacterial species E. coli, S. enteritidis, P. vulgaris, and P. aeruginosa. […] Similarly, cathelin-like protein inhibited growth of S. epidermidis ([…]) but not S. enteritidis or P. vulgaris.

[1] = tested on: Staphylococcus epidermidis (ATCC 12228); test: Radial diffusion (inhibition zone) assay; type: cell-based; details: S. epidermidis
Experimental: as §3, §4

[2] = tested on: Pseudomonas aeruginosa (ATCC 8427); test: Radial diffusion (inhibition zone) assay; type: cell-based; details: P. aeruginosa
Experimental: as §3, §4

E. coli (ATCC 25922) = test: Radial diffusion (inhibition zone) assay; type: cell-based
Experimental: as §3, §4

[3] = tested on: Proteus vulgaris (ATCC 8427); test: Radial diffusion (inhibition zone) assay; type: cell-based; details: P. vulgaris
Experimental: as §3, §4

T1 sequence (P07711 114-288 limits assumed): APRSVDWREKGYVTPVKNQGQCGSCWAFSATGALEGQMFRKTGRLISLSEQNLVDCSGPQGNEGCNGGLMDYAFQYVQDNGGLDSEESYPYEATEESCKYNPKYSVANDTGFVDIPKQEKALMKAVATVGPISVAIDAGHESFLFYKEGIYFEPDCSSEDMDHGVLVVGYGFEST
T1 sequence (P07711 292-333 limits assumed): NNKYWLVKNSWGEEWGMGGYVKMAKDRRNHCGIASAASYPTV

Molecule | effect on growth (CFU) (MRSA; concentration not given) | effect on growth (CFU) (E. coli; 16 (unit uncertain), pH 7.4, compared to untreated controls) | minimal inhibitory activity against growth, concentration (MRSA (ATCC 33591)) | slope of fluorescence generation (linear regression) (human liver cathepsin L; cathepsin L + cathelin-like protein, cathepsin L alone slope 1.31) | hydrolytic activity of cathepsin L inhibited by (human liver cathepsin L; protein added at final concentration of 10^-6 M, substrate Z-Phe-Arg-AMC) | growth inhibition (S. enteritidis) | minimal inhibitory activity against growth, concentration [1] | growth inhibition [2] | minimal inhibitory activity against growth, concentration (E. coli (ATCC 25922)) | growth inhibition [3] | effect on growth (CFU) (MRSA) | effect on growth (CFU) (E. coli; 32 (unit uncertain), pH 7.4) | cathepsin L inhibitory activity (human liver cathepsin L; parallel experiments) | minimal inhibitory activity against growth, concentration (S. enteritidis) | minimal inhibitory activity against growth, concentration [2] | minimal inhibitory activity against growth, concentration [3]
cathelin-like protein: recombinant human cathelin-like domain of hCAP18, residues 31-131 of SEQ ID NO:2, expressed in E. coli, His-tag cleaved by enterokinase (protein, listed as Homo sapiens) QVLSYKEAVLRAIDGINQRSSDANLYRLLDLDPRPTMDGDPDTPKPVSFTVKETVCPRTTQQSPEDCDFKKDGLVKRCMGTVTLNQARGSFDISCDKDNKR | decreased MRSA CFU for the first 15 min and then was bacteriostatic | marked growth inhibition | 32 mM | 0.71 | 46% | not | 32 mM | did not inhibit growth | 16 mM | not | – | – | – | – | – | –
hCAP18/LL-37: recombinant human full-length cathelicidin, residues 31-170 of SEQ ID NO:2, inactive precursor (protein, listed as Homo sapiens) QVLSYKEAVLRAIDGINQRSSDANLYRLLDLDPRPTMDGDPDTPKPVSFTVKETVCPRTTQQSPEDCDFKKDGLVKRCMGTVTLNQARGSFDISCDKDNKRFALLGDFFRKSKEKIGKEFKRIVQRIKDFLRNLVPRTES | – | – | greater than 64 mM | – | – | – | greater than 64 mM | – | greater than 64 mM | – | did not show any activity | did not show any activity | did not demonstrate inhibitory activity | greater than 64 mM | greater than 64 mM | greater than 64 mM
